The values below are quoted from earlier work in paper PMC6423427.

The target of the data set is BiP (Homo sapiens) (UniProt P11021).
Chain of UniProt P11021 (P11021 19-654): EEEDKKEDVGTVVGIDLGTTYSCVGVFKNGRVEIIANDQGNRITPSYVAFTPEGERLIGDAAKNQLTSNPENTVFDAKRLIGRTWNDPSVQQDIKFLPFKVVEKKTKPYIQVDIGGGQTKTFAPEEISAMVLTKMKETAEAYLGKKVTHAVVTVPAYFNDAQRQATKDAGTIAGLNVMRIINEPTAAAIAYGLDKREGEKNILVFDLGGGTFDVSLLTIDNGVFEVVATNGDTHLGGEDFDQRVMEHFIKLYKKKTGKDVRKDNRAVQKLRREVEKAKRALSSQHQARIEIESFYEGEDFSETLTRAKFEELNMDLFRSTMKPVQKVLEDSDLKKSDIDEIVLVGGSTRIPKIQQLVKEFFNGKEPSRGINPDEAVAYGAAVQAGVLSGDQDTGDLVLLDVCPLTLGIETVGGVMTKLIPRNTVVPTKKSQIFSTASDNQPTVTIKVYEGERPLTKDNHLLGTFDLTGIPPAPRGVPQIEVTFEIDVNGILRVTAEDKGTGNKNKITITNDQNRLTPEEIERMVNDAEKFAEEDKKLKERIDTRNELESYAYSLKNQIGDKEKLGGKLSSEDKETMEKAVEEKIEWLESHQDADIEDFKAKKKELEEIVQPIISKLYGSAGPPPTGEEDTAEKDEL

IRE1 LD (from UniProt O75460): the equilibrium dissociation constant (Kd) is 1500 nM.

Usually Kd stands for a measure of binding affinity in units of concentration.
